US20240309103A1 (Regeneron, published 2024)

Key:
mNPR1-mFc [1] = biological target: T1, mNPR1-mFc (mouse); experiment: SPR Biacore, mAb captured by anti-human Fc, 25C
T1 construct: also called mouse NPR1 extracellular domain expressed with a C-terminal mouse IgG2a
T1 chain: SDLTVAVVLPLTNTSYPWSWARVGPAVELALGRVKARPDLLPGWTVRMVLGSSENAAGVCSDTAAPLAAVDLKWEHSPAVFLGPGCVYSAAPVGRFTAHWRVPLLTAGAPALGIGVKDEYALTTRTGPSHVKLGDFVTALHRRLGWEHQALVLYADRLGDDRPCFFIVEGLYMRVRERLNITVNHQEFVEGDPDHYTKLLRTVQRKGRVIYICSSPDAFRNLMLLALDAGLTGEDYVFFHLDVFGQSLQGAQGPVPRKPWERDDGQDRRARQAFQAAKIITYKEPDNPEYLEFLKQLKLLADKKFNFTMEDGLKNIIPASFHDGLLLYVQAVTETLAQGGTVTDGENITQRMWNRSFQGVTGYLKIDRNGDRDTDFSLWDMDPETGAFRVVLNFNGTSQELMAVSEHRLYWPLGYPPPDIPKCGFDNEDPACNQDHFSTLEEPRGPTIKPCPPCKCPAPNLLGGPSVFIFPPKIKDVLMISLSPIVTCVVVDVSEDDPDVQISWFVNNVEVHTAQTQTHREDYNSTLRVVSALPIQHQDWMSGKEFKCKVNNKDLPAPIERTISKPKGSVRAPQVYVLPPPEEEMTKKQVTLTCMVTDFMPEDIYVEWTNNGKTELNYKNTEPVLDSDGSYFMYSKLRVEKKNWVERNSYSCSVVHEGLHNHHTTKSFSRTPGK
In short: (§1)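 Binding of NPR1 reagents to anti-NPR1 antibodies immobilized via anti-human Fc capture was measured by SPR in pH 7.4 HEPES/NaCl/EDTA/Tween buffer. Affinities are equilibrium KD values.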

mNPR1-mFc [2] = biological target: T1, mNPR1-mFc; experiment: SPR Biacore, mAb captured by anti-human Fc, 37C
In short: as §1

mfNPR1-mFc:hBNP complex = biological target: T2, mfNPR1-mFc:hBNP complex (monkey; human, UniProt P16860 103-134); experiment: SPR Biacore, mAb captured by anti-human Fc, 37C
T2 construct: Receptor-Fc pre-complexed with 10-fold hBNP
In short: as §1

[3] = biological target: T3, human NPR1 on HEK293/hNPR1.myc.DDK cells (0 hANP) (human, UniProt P16066 33-1061); experiment: cell-based or functional assay
T3 sequence: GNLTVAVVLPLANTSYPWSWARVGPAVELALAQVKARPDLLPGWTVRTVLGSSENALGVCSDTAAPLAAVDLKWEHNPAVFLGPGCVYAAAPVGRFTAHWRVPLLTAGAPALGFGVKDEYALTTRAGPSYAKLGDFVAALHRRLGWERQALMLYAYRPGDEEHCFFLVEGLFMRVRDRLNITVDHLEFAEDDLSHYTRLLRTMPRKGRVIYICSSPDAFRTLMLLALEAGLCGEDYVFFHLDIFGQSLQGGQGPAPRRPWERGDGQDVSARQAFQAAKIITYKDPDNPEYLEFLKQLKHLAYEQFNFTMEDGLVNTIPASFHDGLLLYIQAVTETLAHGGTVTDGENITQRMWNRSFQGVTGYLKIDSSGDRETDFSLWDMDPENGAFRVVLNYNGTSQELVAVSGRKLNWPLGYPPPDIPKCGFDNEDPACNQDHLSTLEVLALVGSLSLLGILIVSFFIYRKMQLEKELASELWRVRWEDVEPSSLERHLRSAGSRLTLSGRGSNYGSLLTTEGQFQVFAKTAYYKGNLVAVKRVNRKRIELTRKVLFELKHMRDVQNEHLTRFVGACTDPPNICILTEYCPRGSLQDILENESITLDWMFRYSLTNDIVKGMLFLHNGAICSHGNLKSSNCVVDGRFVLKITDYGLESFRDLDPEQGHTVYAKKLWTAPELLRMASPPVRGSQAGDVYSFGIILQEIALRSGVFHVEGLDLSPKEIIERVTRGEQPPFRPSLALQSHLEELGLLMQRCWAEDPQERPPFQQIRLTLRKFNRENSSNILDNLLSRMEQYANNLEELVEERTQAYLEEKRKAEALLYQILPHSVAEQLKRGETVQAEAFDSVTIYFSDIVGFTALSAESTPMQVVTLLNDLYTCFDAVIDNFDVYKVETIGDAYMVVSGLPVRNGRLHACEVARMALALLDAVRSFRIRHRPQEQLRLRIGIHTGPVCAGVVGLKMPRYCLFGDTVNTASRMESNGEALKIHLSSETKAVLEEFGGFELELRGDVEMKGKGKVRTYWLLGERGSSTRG

[4] = biological target: T3, human NPR1 on HEK293/hNPR1.myc.DDK …; experiment: ECL cell binding (MSD), 0 hANP
[5] = biological target: T4, human NPR1 on HEK293/hNPR1.myc.DDK cells with 10 nM hANP (NPR1-ANP complex) (human, UniProt P01160 124-151); experiment: ECL cell binding (MSD), +10 nM hANP
T4 construct: also called NPR1-ANP Complex on the Cell Surface
T4 sequence: T3 sequence
T4 sequence (peptide): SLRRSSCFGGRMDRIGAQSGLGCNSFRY

[6] = biological target: T3, human NPR1 on HEK293/hNPR1.myc.DDK …; experiment: ECL cell binding (MSD), HEK293/hNPR1.myc.DDK cells, 0 hANP
Procedure: Experiments were carried out according to the following procedure. Cells from lines described above were rinsed once in 1×PBS buffer without Ca²⁺/Mg²⁺ nd incubated for 10 minutes at 37° C. with Enzyme Free Cell Dissociation Solution to detach cells from a flask. All cells were washed once with 1×PBS with Ca²⁺/Mg²⁺ and counted with a Cellometer™ Auto T4 cell counter (Nexcelom Bioscience). Approximately 2.0×10⁴ HEK293/hNPR1.myc.DDK or HEK293 cells were seeded separately onto 96-well carbon electrode plates (MULTI-ARRAY high bind plate, Meso Scale Discovery (MSD, Rockville, MD)) and incubated for 1 hour (h) at 37° C. Nonspecific binding sites were blocked by 2% BSA (w/v) in 1×PBS with Ca²⁺/Mg²⁺for 1 h at room temperature (RT). HEK293/hNPR1.myc. […] The plate-bound antibodies were detected with SULFO-TAG™-conjugated goat polyclonal anti-human IgG antibody specific for heavy and light chains (Jackson Immunoresearch, West Grove, PA) for 1 h, RT.
After washes, plates were developed with Read Buffer (MSD, Rockville, MD) according to manufacturer's recommended procedure and luminescent signals were recorded with a SECTOR Imager 600 (MSD, Rockville, MD). Luminescence intensity, measured in relative light units (RLU), was recorded to indicate the binding intensity of each antibody at the range of concentrations.

SEC-MALS = biological target: the molecule itself; experiment: SEC-MALS
Procedure: After overnight incubation in PBS at 4° C., the complexes were injected into the SEC-MALS system, which consists of a Superdex 200 Increase 10/300 GI column on an ÄKTA micro system (GE Healthcare Life Sciences), followed by a miniDAWN Treos and Optilab T-rEX (Wyatt Technology Corporation). […] Size exclusion chromatography data was evaluated using Unicorn (Version 5.20 General Electric Company), and the MALS data was evaluated using ASTRA (Version 7.0.0.69 Wyatt Technology).

B1: mAb22805 (antibody, human IgG4, V domains shown)
VH: QVQLVESGGGVVQPGRSLRLSCAASGFTFSTYGMHWVRQAPGKGLEWVALIWNDGSNKYYADSVKGRFTISRDNSKNTLDLQMNSLRAEDTAVYYCARLNTRITGTTNLDYWGQGTLVTVSS
VL: DIQMTQSPSSLSASVGDRVTVSCRASQSIANYLNWYQQKPGKAPNLLIYGAYTLQSGVPSRFRGSGSGTDFTLTISSLQPEDFATYYCQQTYSTPPITFGQGTRLEIK
100 nM Ag Bound (RU) (mNPR1-mFc [1]): 0 RU
100 nM Ag Bound (RU) (mNPR1-mFc [2]): 0 RU
binding result (mNPR1-mFc [2]): no binding (tested: 100 nM)
100 nM Ag Bound (RU) (mfNPR1-mFc:hBNP complex): 150 RU
Kd (mfNPR1-mFc:hBNP complex): 3.39 nM
koff (mfNPR1-mFc:hBNP complex): 0.000202 s⁻¹
kon (mfNPR1-mFc:hBNP complex): 59600 M⁻¹ s⁻¹
t½ (mfNPR1-mFc:hBNP complex): 57.2 min
% Activation (vs ANP max), Expt 1 [3]: 91.6%
% Activation (vs. ANP max), Expt II [3]: 119%
EC50 (nM), calcium flux, Expt 1 [3]: 239 nM
EC50 (nM), calcium flux, Expt II [3]: 112 nM
Ratio at 3.7 nM Ab concentration of Cell Binding Signal (RLU) to HEK293/hNPR1.myc.DKK relative to parental HEK293 [4]: 1 ratio
EC50 [5]: 0.65 nM
Ratio at 3.7 nM Ab concentration of Cell Binding Signal (RLU) to HEK293/hNPR1.myc.DKK relative to parental HEK293 [5]: 222 ratio
binding result [6]: no binding (tested: ratio below 3 at 3.7 nM Ab)

B2: mAb22809 (antibody, human IgG4, V domains shown)
VH: QLQLRESGPGLVKPSETLSLTCTVSGGSINDNSFFWDWIRQTPGRGLEWIGNIFFDGNTYYTPSLKSRVIISVDMSQNQFSLRLTSVTAADTALYYCARHKRSMTAWGFFDYWGQGTLVTVSS
VL: DIQMTQSPSSLSASVGDRVTITCRASKRINTYLNWYQQKPGKAPKVLIYSASNLQSGVPSRFSGSGSGTDFTLTINSLQPEDFATYFCQQSFSAPPITFGQGTRLEIK
100 nM Ag Bound (RU) (mNPR1-mFc [1]): 0 RU
100 nM Ag Bound (RU) (mNPR1-mFc [2]): 0 RU
binding result (mNPR1-mFc [2]): no binding (tested: 100 nM)
100 nM Ag Bound (RU) (mfNPR1-mFc:hBNP complex): 99 RU
Kd (mfNPR1-mFc:hBNP complex): 4.29 nM
koff (mfNPR1-mFc:hBNP complex): 0.000229 s⁻¹
kon (mfNPR1-mFc:hBNP complex): 53400 M⁻¹ s⁻¹
t½ (mfNPR1-mFc:hBNP complex): 50.5 min
% Activation (vs ANP max), Expt 1 [3]: 86.7%
EC50 (nM), calcium flux, Expt 1 [3]: 270 nM
Ratio at 3.7 nM Ab concentration of Cell Binding Signal (RLU) to HEK293/hNPR1.myc.DKK relative to parental HEK293 [4]: 2 ratio
EC50 [5]: 0.48 nM
Ratio at 3.7 nM Ab concentration of Cell Binding Signal (RLU) to HEK293/hNPR1.myc.DKK relative to parental HEK293 [5]: 166 ratio
binding result [6]: no binding (tested: ratio below 3 at 3.7 nM Ab)

B3: mAb25545 (antibody, human IgG4, V domains shown)
VH: QVQLVESGGGLVKPGGSLRLSCAASGFTFSDYHLSWIRQAPGKGLEWVSYIRSSGRTIDYAASVKGRFTISRDNAKNSLYLQMNSLRVEDTAVYYCARENWIVLKVYAGIVGAPLDQWGQGTLVTVSS
VL: not shown
100 nM Ag Bound (RU) (mNPR1-mFc [1]): 0 RU
100 nM Ag Bound (RU) (mNPR1-mFc [2]): 1 RU
binding result (mNPR1-mFc [2]): no binding (tested: 100 nM)
100 nM Ag Bound (RU) (mfNPR1-mFc:hBNP complex): 82 RU
Kd (mfNPR1-mFc:hBNP complex): 2.09 nM
koff (mfNPR1-mFc:hBNP complex): 7.77e-05 s⁻¹
kon (mfNPR1-mFc:hBNP complex): 37100 M⁻¹ s⁻¹
t½ (mfNPR1-mFc:hBNP complex): 149 min
% Activation (vs ANP max), Expt 1 [3]: 123%
% Activation (vs. ANP max), Expt II [3]: 123%
EC50 (nM), calcium flux, Expt 1 [3]: 188 nM
EC50 (nM), calcium flux, Expt II [3]: 74.1 nM
Ratio at 3.7 nM Ab concentration of Cell Binding Signal (RLU) to HEK293/hNPR1.myc.DKK relative to parental HEK293 [4]: 1 ratio
EC50 [5]: 1.9 nM
Ratio at 3.7 nM Ab concentration of Cell Binding Signal (RLU) to HEK293/hNPR1.myc.DKK relative to parental HEK293 [5]: 79 ratio
binding result [6]: no binding (tested: ratio below 3 at 3.7 nM Ab)

B4: mAb22810 (antibody, human IgG4, V domains shown)
VH: EVQLVESGGGLVKPGGSLRLSCVVSGFTFRIYTMNWVRQAPGKGLEWVASISSSSSFINYADSLKGRFTISRDNAQNSLYLQMNSLRAEDTAIYYCARAAGNDVLPGRMDVWGQGTSVTVSS
VL: EIVLTQSPGTLSLSPGERATLSCRASQSVSSNYLAWYQQKPGQVPSLLIYGASSRATGIPDRFSGSGSGTDFTLTITRLEPEDFAVYYCQQYGISPWTFGQGTKVEIK
% Activation (vs. ANP max), Expt II [3]: 126%
EC50 (nM), calcium flux, Expt II [3]: 50.8 nM
Ratio at 3.7 nM Ab concentration of Cell Binding Signal (RLU) to HEK293/hNPR1.myc.DKK relative to parental HEK293 [4]: 1 ratio
EC50 [5]: 3.7 nM
Ratio at 3.7 nM Ab concentration of Cell Binding Signal (RLU) to HEK293/hNPR1.myc.DKK relative to parental HEK293 [5]: 24 ratio
binding result [6]: no binding (tested: ratio below 3 at 3.7 nM Ab)

B5: human NPR1 extracellular domain expressed with a C-terminal myc-myc-hexahistidine (hNPR1-MMH) (receptor)
chain: GNLTVAVVLPLANTSYPWSWARVGPAVELALAQVKARPDLLPGWTVRTVLGSSENALGVCSDTAAPLAAVDLKWEHNPAVFLGPGCVYAAAPVGRFTAHWRVPLLTAGAPALGFGVKDEYALTTRAGPSYAKLGDFVAALHRRLGWERQALMLYAYRPGDEEHCFFLVEGLFMRVRDRLNITVDHLEFAEDDLSHYTRLLRTMPRKGRVIYICSSPDAFRTLMLLALEAGLCGEDYVFFHLDIFGQSLQGGQGPAPRRPWERGDGQDVSARQAFQAAKIITYKDPDNPEYLEFLKQLKHLAYEQFNFTMEDGLVNTIPASFHDGLLLYIQAVTETLAHGGTVTDGENITQRMWNRSFQGVTGYLKIDSSGDRETDFSLWDMDPENGAFRVVLNYNGTSQELVAVSGRKLNWPLGYPPPDIPKCGFDNEDPACNQDHLSTLEEQKLISEEDLGGEQKLISEEDLHHHHHH
notes: also called hNPR.mmh; monomeric human NPR1
binding result (SEC-MALS): binds
